Legend:
[1] = target: human BDNF (Sino Biological Inc., Catalog 50240-MNAS) (Homo sapiens, UniProt P23560); experiment: SPR
[2] = target: human BDNF (KinExA; supplier not stated) (Homo sapiens, UniProt P23560); experiment: kinetic exclusion assay
Sequence of human BDNF (KinExA; supplier not stated) (P23560 129-247): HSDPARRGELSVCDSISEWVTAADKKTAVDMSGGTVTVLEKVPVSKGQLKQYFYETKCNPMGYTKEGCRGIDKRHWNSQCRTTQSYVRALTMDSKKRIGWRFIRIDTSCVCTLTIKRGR

Sequence of human BDNF (Sino Biological Inc., Catalog 50240-MNAS) (P23560 129-247): as above

B1: R3bH01, parental chimeric chicken-human IgG1 anti-BDNF antibody (antibody, V domains shown)
VH: AVTLDESGGGLQTPGGGLSLVCKASGFDFSSYDMHWVRQAPGKGLEWVAGIDDGGSDTYYGSAVKGRATISRDNGQSTVRLQLNNLRAEDTGTYYCAKSSYDISWNGHVENIDAWGHGTEVIVSS
VL: ALTQPTSVSTNLGGTVEITCSGAGSGYGYGWFQQKSPGSAPVTVIYSNDKRPSDIPSRFSGSKSGSTGTLTITGVQAEDEAVYFCGTYDSTDAGYAIFGAGTTLTVL
Kd [1]: 34.4 ± 5.43 nM

B2: B30, humanized and affinity-optimized anti-BDNF IgG1 (antibody, V domains shown)
VH: not shown
VL: SSELTQPPAVSVALGQTVRITCSGAGSGYGYGWYQQKPGQAPVTVIYSNDKRPSGIPDRFSGSSSGNTASLTITGAQAEDEADYYCGTYVSAYYGYAIFGGGTKLTVL
Kd [1]: 0.12 ± 0.01 nM

B3: B30 Fab (Fab, V domains shown)
VH: not shown
VL: SSELTQPPAVSVALGQTVRITCSGAGSGYGYGWYQQKPGQAPVTVIYSNDKRPSGIPDRFSGSSSGNTASLTITGAQAEDEADYYCGTYVSAYYGYAIFGGGTKLTVL
Kd [2]: 0.00106 nM

Reference: publication PMC7188400 (mAbs, 2020)
